Experimental data as given in patent US20200339648A1 (University of Washington, published 2020).

Legend:
[1] = biological target: T1, human IL-2 receptor β subunit (hIL-2Rβ) (human, UniProt P14784 27-240, biotin on the C-terminal biotin acceptor peptide); test: SPR, equilibrium titration; biotinylated IL-2Rβ on streptavidin chip
T1 construct: Biotinylated and immobilised on streptavidin; also called HsIL-2Rβ; human IL-2Rβ
T1 sequence: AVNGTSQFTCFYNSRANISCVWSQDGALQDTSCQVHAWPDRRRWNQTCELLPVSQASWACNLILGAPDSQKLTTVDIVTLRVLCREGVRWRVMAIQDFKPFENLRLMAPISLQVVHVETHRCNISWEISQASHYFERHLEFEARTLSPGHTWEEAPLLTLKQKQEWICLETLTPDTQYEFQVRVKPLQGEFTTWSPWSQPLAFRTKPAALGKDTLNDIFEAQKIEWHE

[2] = biological target: T2, mouse IL-2 receptor β subunit (mIL-2Rβ) (mouse, UniProt P16297 27-240, biotin on the C-terminal biotin acceptor peptide); test: as above
T2 construct: extracellular domain; Biotinylated form for SPR; also called MmIL-2Rβ; murine IL-2Rβ
T2 sequence: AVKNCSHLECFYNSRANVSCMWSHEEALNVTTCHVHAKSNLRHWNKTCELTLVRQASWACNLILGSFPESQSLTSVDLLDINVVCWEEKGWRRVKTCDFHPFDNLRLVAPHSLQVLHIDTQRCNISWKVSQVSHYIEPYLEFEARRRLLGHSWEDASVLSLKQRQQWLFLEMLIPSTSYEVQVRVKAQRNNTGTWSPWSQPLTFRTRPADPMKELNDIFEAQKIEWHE

[3] = biological target: T3, human IL-2Rβγc on human cells (YT-1 NK cells) (human, UniProt P14784 27-551; P31785 23-369); test: cell-based or functional assay
T3 sequence (looked up) 1: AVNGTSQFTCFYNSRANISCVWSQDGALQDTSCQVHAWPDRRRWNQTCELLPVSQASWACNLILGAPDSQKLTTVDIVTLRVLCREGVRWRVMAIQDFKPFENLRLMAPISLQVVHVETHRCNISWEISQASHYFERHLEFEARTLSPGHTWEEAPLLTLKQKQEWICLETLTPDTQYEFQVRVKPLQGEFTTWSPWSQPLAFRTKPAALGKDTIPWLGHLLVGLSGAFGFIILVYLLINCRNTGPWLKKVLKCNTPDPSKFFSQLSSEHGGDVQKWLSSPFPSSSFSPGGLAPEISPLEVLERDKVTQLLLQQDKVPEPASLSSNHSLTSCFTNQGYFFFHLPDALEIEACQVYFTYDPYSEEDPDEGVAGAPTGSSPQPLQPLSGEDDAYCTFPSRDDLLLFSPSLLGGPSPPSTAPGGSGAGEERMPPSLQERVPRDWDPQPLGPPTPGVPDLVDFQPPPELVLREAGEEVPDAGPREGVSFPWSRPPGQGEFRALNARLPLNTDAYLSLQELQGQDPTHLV
T3 sequence (looked up) 2: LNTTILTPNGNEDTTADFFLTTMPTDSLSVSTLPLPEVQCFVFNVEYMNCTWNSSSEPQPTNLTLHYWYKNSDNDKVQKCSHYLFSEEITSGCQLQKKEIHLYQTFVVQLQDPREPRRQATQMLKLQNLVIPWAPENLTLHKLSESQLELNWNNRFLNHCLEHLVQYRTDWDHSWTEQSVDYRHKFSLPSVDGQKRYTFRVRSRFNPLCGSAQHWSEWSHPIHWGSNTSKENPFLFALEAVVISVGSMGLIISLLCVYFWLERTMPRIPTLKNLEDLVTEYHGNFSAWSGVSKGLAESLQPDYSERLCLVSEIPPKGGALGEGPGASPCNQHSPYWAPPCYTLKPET

[4] = biological target: T4, mouse IL-2Rβγc on murine cells (CTLL-2 T cells, primary CD4+ T cells) (mouse, UniProt P16297 27-539; P34902 23-369); test: cell-based or functional assay
T4 sequence (looked up) 1: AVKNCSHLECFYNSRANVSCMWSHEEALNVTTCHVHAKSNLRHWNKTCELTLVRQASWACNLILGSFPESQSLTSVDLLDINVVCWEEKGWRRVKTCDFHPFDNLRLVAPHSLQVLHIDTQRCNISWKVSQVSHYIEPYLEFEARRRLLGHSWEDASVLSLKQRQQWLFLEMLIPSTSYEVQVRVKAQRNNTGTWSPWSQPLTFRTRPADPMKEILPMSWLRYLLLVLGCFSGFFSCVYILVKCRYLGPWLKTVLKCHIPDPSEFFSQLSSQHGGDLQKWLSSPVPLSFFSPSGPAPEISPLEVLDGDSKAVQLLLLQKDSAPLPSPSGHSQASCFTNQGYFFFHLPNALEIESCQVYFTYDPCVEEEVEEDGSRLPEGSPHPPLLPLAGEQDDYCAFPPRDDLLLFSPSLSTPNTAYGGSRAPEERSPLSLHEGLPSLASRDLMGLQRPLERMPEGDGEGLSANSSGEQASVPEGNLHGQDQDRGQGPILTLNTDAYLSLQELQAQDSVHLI
T4 sequence (looked up) 2: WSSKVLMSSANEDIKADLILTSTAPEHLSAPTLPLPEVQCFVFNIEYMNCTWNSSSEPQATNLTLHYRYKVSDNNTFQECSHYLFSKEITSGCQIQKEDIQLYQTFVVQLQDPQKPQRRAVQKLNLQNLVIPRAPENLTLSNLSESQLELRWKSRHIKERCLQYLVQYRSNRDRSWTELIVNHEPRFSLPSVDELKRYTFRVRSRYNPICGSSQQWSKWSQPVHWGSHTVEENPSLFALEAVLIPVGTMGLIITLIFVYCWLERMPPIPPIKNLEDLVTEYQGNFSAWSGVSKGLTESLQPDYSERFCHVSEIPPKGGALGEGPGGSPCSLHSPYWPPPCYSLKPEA

B1: mouse interleukin-2 (mIL-2) (ligand, UniProt P04351 21-169, looked up)
chain: APTSSSTSSSTAEAQQQQQQQQQQQQHLEQLLMDLQELLSRMENYRNLKLPRMLTFKFYLPKQATELKDLQCLEDELGPLRHVLDLTQSKSFQLEDAENFISNIRVTVVKLKGSDNTFECQFDDESATVVDFLRRWIAFCQSIISTSPQ
notes: range 1-149; Baculovirus expression for SPR; also called MmIL-2; mouse IL-2
[1]
  Kd: 4950 nM
[2]
  Kd: 1500 nM
[3]
  EC50 (CD25-) pSTAT5p, human NK (YT, CD25-) cells: 39 nM
[4]
  EC50 (CD25+) pSTAT5, murine T (CTLL-2, CD25+) cells: 0.003 nM

B2: G1_neo2_40_1F (designed binder)
chain: STKKTQLLAEHALLDALMMLNLLPEPNEKLNRIITTMQSWIFTGKIDGDGAQELAKEVEELEQEHEKRGIDVEDYASNLKVILLELA
notes: also called G1_ne02_40_1F
[1]
  Kd: 2.6 nM
[2]
  Kd: 486 nM
[3]
  EC50 (CD25-) pSTAT5p, human NK (YT, CD25-) cells: 0.09 nM
[4]
  EC50 (CD25+) pSTAT5, murine T (CTLL-2, CD25+) cells: 0.2 nM

B3: G2_neo2_40_1F_dsn36 (designed binder)
chain: PKKKIQLLAEHALLDALMILNIVKTNSQNAEEKLEDYASNVEVILEEIARLMESGDQKDEAEKAKRMKEWMKRIKTTASEDEQEEMANRIITLLQSWIFS
notes: E. coli, N-terminal 6xHis tag and thrombin site
[1]
  Kd: 27.6 nM
[2]
  Kd: 2430 nM
[3]
  EC50 (CD25-) pSTAT5p, human NK (YT, CD25-) cells: 0.12 nM
[4]
  EC50 (CD25+) pSTAT5, murine T (CTLL-2, CD25+) cells: 1.36 nM
